Laboratory results as given in the supplement of paper PMC10567573.

B1: ZNF24 (parent)
chain: THTKEQILELVVLEQFVAILPKEL

Variants of: B1
Assay: protein stability index of a GFP-peptide fusion (GPS, HEK-293T) (PSI 1-6); higher = more stable
Details: c terminus: a fixed tail appended
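Also: lentivirally expressed fusions sorted by FACS into six bins by GFP to DsRed ratio, PSI derived from sequencing read proportions per bin multiplied by bin number.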

Protein stability index: each site, then its substitutions
E14: G 3.21, H 2.94, A 2.14, C 2.45, D 2.24, F 2.48
V11: R 1.76, E 1.86, L 2.43, N 2.15, H 2.18, C 2.51, K 1.47, G 2.05, Y 1.91, W 3.42, M 2.6, I 3.03, P 2.67, D 2.36, T 2, Q 2.05, S 2.03, F 3.28, A 2.1
L8: E 2.32, S 1.57, I 2.79, H 2.1, G 1.62, Q 1.95, T 1.75, D 2.52, K 1.84, F 3.62, N 1.57, R 1.85, A 2.28, Y 2.66, W 3.68, M 2.41, C 2.75, P 2.16, V 2.4
E9: V 3.25, D 2.28, A 3.22, G 2.85, K 2.77, R 2.49, M 2.04, T 2.29, P 2.93, C 1.64, S 3.48, N 2.82, Q 2.69, H 3.25, F 2.82, L 2.62, Y 3.52, W 2.87
Q6: L 3.47, N 2.52, P 4, S 2.96, C 2.11, T 3.03, K 3.65, D 1.55, W 2.41, Y 4.9, F 3.53, V 3.24, G 3.09, I 3.01, M 3.56, H 1.8, R 2.56, A 2.33, E 2.46
L13: P 2.42, R 1.85, E 1.9, T 2.77, H 1.76, W 2.67, G 1.84, A 1.51, D 2.29, C 1.98, S 1.55, F 2.47, M 2.18, Q 2.34, N 1.73, K 1.69, Y 2.88, I 3.27
E5: V 3.53, L 2.78, N 3.01, R 3.65, T 3.59, Q 2.97, K 2.23, I 3.67, M 3.25, S 1.57, W 2.85, Y 2.01
L10: R 1.72, P 2.09, T 2.03, N 2.23, C 2.42, M 2.69, F 2.35, E 2.12, Y 2.69, S 1.72, A 2.28, V 2.5, K 2.04, Q 2.26, H 1.65, I 2.02, D 2.69, G 1.7
I7: Q 1.89, Y 3.29, N 1.65, S 2.04, V 1.29, M 3.04, F 2.54, W 2.51, P 2.48, E 2.55, C 1.59, K 1.56, R 1.9, H 2.04, D 2.35, G 1.76, A 1.74, L 2.16, T 2.11
V12: G 1.98, P 2.19, F 2.93, H 1.8, Q 2.05, K 2.07, L 2.12, N 2.14, S 2.03, M 2.51, Y 2.64, W 2.42, C 2.23, A 1.83, R 1.94, E 2.22, T 1.99, D 2.27, I 3.17
